The labels stand for the following.
B2: Biotinylated recombinant CD97, N-terminal extracellular domain (residues 24-540) with Fc domain and avidin tag (Fc fusion)
chain: RGCARWCPQNSSCVNATACRCNPGFSSFSEIITTPTETCDDINECATPSKVSCGKFSDCWNTEGSYDCVCSPGYEPVSGAKTFKNESENTCQDVDECQQNPRLCKSYGTCVNTLGSYTCQCLPGFKFIPEDPKVCTDVNECTSGQNPCHSSTHCLNNVGSYQCRCRPGWQPIPGSPNGPNNTVCEDVDECSSGQHQCDSSTVCFNTVGSYSCRCRPGWKPRHGIPNNQKDTVCEDMTFSTWTPPPGVHSQTLSRFFDKVQDLGRDSKTSSAEVTIQNVIKLVDELMEAPGDVEALAPPVRHLIATQLLSNLEDIMRILAKSLPKGPFTYISPSNTELTLMIQERGDKNVTMGQSSARMKLNWAVAAGAEDPGPAVAGILSIQNMTTLLANASLNLHSKKQAELEEIYESSIRGVQLRRLSAVNSIFLSHNNTKELNSPILFAFSHLESSDGEAGRDPPAKDVMPGPRQELLCAFWKSDSDRGGHWATEGCQVLGSKNGSTTCQCSHLSSFAILMAHY
modifications: biotin (in situ biotinylation by BirA-ER during expression)

Assay in all cases: BLI
In assay [1] the target is B2.
Assay [2] has as its target CD97 Ab with same binding site as DAF-Fc.
The target in the next assay is CD97 Ab with known Kd.

B1: DAF-Fc (decay accelerating factor, DAF/CD55, fused to the human IgG1 Fc region) (Fc fusion)
chain: DCGLPPDVPNAQPALEGRTSFPEDTVITYKCEESFVKIPGEKDSVICLKGSQWSDIEEFCNRSCEVPTRLNSASLKQPYITQNYFPVGTVVEYECRPGYRREPSLSPKLTCLQNLKWSTAVEFCKKKSCPNPGEIRNGQIDVPGGILFGATISFSCNTGYKLFGSTSSFCLISGSSVQWSDPLPECREIYCPAPPQIDNGIIQGERDHYGYRQSVTYACNKGFTMIGEHSIYCTVNNDEGEWSGPPPECRGKSLTSKVPPTVQKPTTVNVPTTEVSPTSQKTTTKTTTPNAQATRSTPVSRTTKHFHETTPNKGSGTTS
For orientation: Kd means the constant that tells how readily two partners part at equilibrium. In the case of B1, the Kd in assay [1] was found to be 340 nM.

In the case of B2, the Kd in assay [2] stood at 4.5 nM; with CD97 Ab with known Kd, 7700 nM.
